The target in this assay is His-tagged wildtype EGFR kinase domain (human, UniProt P00533 696-1022, limits assumed). The experiment in a line: cell-based or functional assay.

As for SYLNGVMPPTQSFAPDPKYVSSKAL [25-mer peptide corresponding to residues 340-364 in Mig-6], the “inhibition of activated EGFR kinase (IC50)” value was around 100 µM.

These data come from patent publication US20100120678A1 (University of California, published 2010).
